Article PMC7954794, “Protein context shapes the specificity of SH3 domain-mediated interactions in vivo” (Nature Communications, 2021)

Tested on: PPIs identified as affected by the SH3 domain deletions
Experiment: Liquid DHFR-PCA low-throughput validation of PPIs affected by SH3 deletion (Fig. S1D-E)
Type: cell-based, Saccharomyces cerevisiae
Conditions: bait LSB3; label = prey; liquid DHFR-PCA; prey _1 = lost, _2 = gained in screen
Procedure, shortened: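 Growth at 30 °C was tracked by OD each 15 min over 72 h in agar-free PCA selection medium, starting at 0.1 OD. Cells were diploids selected after mating, first cultured 48 h with NAT and HPH in synthetic complete MSG medium, pH 6.0.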

B1: YMR216C_2 (protein, UniProt Q03656 1-742, looked up)
Serine/threonine-protein …: MGSSINYPGFVTKSAHLADTSTDASISCEEATSSQEAKKNFFQRDYNMMKKAPAPTKSKLSLALQTSKSSSSANGTVQEDTSSKTEDFSTKSIKKKPDSGVESHVSIQSDSGPQSDSDLDSDSSISSCDERNEESLKDYRPGGYHPAFKGEPYKDARYILVRKLGWGHFSTVWLAKDMVNNTHVAMKIVRGDKVYTEAAEDEIKLLQRVNDADNTKEDSMGANHILKLLDHFNHKGPNGVHVVMVFEVLGENLLALIKKYEHRGIPLIYVKQISKQLLLGLDYMHRRCGIIHTDIKPENVLMEIGDVEGIVQMVEALDKQKREAKRLQRHVSRSSDITANDSSDEKWAECQTSMPCGSSSNSKSRSIEKDLSKRCFRRPRRHTIITGSQPLPSPISSSNFFEMRAHFCGSSHNSFSSVSGNRNIPSSINNNSINNGIGIKNSNNSFLNSVPHSVTRMFINEDSNDNNNNDNSKNKNNNNNNSNNNNNEDIMNTPLHEEQLADSLSTFDISNISQSSDTNGPYISNTMDSNSNVSTDINSPENLIQIKIADLGNACWYDEHYTNSIQTREYRSPEVLLGAPWGCGADIWSTACLIFELITGDFLFEPDEGHSYTKDDDHIAQIIELLGELPSYLLRNGKYTRTFFNSRGLLRNISKLKFWPLEDVLTEKYKFSKDEAKEISDFLSPMLQLDPRKRADAGGLVNHPWLKDTLGMEEIRVPDRELYGSGSDIPGWFEEVRDHKRH
  Ratio (Deletedscore / WTscore): 1.244
